The test system of experiment [1] is PPARγ, aP2, FAS, PRDM16, PGC1α, CIDEA. Kind of experiment: Adipogenic and brown fat marker mRNA expression in WT-1 brown preadipocytes. The format is cell-based, murine. The procedure: Total RNA was isolated with QIAzol lysis reagent (Qiagen, Valencia, Calif.) and purified by RNeasy Mini columns (Qiagen) following the manufacture's instructions. cDNA was prepared from total RNA using the Advantage RT-PCR kit (BD Biosciences, Palo Alto, Calif.) according to manufacturer's instructions. Diluted cDNA was used in a PCR reaction with SYBR Green Master Mix (Applied Biosystems, Foster City, Calif.) and primers specifically designed for detection of the gene of interest. PCR reactions were run in duplicate for each sample and quantitated in the ABI Sequence Detection System (Applied Biosystems). Data were expressed as arbitrary units after normalization to levels of expression of internal controls for each sample. Sequences of primers for specific genes are each obtained from the published literature or designed using publically available gene sequence databases. Unless otherwise indicated, gene expression data described in the examples below was obtained using QPCR.
The effect of FGF6 on differentiation of WT-1 murine brown preadipocytes was also examined. WT-1 cells can be induced to undergo brown adipocyte differentiation, characterized by lipid accumulation and expression of adipogenic and brown fat markers, as described above (Klein et al. (1999) J Biol Chem 274:34795; Tseng et al. (2005) Nat Cell Biol 7:601). WT-1 cells were treated with FGF6 in growth media (DMEM+10% FBS), a vehicle control (“control” or “C” referred to in FIGS. 3A-D), or induction media (“induction” or “I” referred to in FIGS. 3A-D) as described above for seven days. Following the treatment, cells were examined for the color of the culture media in combination with oil Red O staining, expression of adipogenic markers, expression of brown fat markers, immunofluorescent staining of cells with UCP1 and DPAI, and Western blot analysis to determine the presence of UCP1 and β-tubulin. The results are described in FIGS. 3A to 3D.
FGF2, FGF6 and FGF9 were used at a dosage of 50 ng/mL, 100 ng/mL, 200 ng/mL or 300 ng/mL. FGF21 was used at the dosage of 50 ng/ml and 500 ng/mL. The concentration of BMP7 was 3.3 nM. RNA was isolated and UCP1 and PPARγ expression levels were evaluated by quantitative reverse transcription polymerase chain reaction (Q-RT-PCR) analysis after 24 hours (i.e., 1 day) (FIG. 14A), 2 days (FIG. 14B), 5 days (FIG. 14C) and 7 days (FIG. 14D) of treatment. All experiments were performed triplicate and the data are presented as mean+/−SEM.
FGF2, FGF6 and FGF9 were used at a dosage of 200 ng/mL. FGF21 was used at a dosage of 500 ng/mL. The concentration of BMP7 was 3.3 nM. mRNA was isolated and UCP1 and PPARγ expression levels were evaluated by quantitative reverse transcription polymerase chain reaction (Q-RT-PCR) analysis after 24 hours (i.e., 1 day), 2 days, 5 days and 7 days of treatment (FIG. 15). All experiments were performed triplicate and the data are presented as mean+/−SEM.

For another experiment, the system named is UCP1. The experiment can be described thus: UCP1 expression in immortalized human brown fat progenitors. It counts as cell-based. The protocol:
Primary stromal-vascular fraction (SVF) from human neck fat was isolated as described previously (Cannon and Nedergaard, Physiol Rev, 84: 277-359, 2004). Briefly, freshly resected superficial fat (pooled subcutaneous and subplatysmal) and fat located in the deeper neck regions (pooled carotid sheath, longus colli and prevertebral) were collected, minced and digested using collagenase 1 (2 mg/mL in PBS with the addition of 3.5% BSA; Worthington Biochemical Corporation, Lakewood, N.J.), and the SVF was isolated. SVF cells were plated and grown in high glucose Dulbecco's modified Eagle's medium (DMEM/H) supplemented with 10% (v/v) fetal bovine serum (FBS) and 1% penicillin/streptomycin. For adipocyte differentiation, cells were grown to confluent for 6 days (day 6) and then exposed to adipogenic induction mixture in DMEM/H medium containing isobutylmethylxanthine (0.5 mM), dexamethasone (0.1 μM), human insulin (0.5 μM; Roche Applied Science, Indianapolis, Ind.), T3 (2 nM), indomethacin (30 μM), pantothenate (17 μM), biotin (33 μM) and 2% FBS for another 12 days (referred as day 18). Induction medium was changed every 3 days until collected.
Primary SVF cells were immortalized with human telomere reverse transcriptase (hTERT) as described previously (Tchkonia, T., et al. Diabetes 55, 2571-2578, 2006). […]

B1: FGF6: fibroblast growth factor 6; recombinant human FGF from R&D Systems, or mouse FGF6 cDNA overexpressed by lentiviral vector (protein)
chain: KRQRRLYCNVGIGFHLQVLPDGRISGTHEENPYSLLEISTVERGVVSLFGVRSALFVAMNSKGRLYATPSFQEECKFRETLLPNNYNAYESDLYQGTYIALSKYGRVKRGSKVSPIMTVTHFLPRI
Regarding B1, the “PPARγ expression level, time course” value in experiment [1] (200 ng/mL with insulin and T3, 1, 2, 5, 7 days) was “very low levels of PPARγ”. Further, the PPARγ expression level result in experiment [1] (50-300 ng/mL with insulin and T3, 1, 2, 5 and 7 days) is reported as “very low levels of PPARγ”. Besides, the “expression of transcriptional regulators of UCP1 (PGC1α, PPARγ, PRDM16)” value in experiment [1] (50-300 ng/mL, three days) was “did not increase”. Besides, the “mRNA expression of other brown fat markers (PRDM16, PGC1α, CIDEA)” value in experiment [1] (WT-1, seven days) is “did not, in contrast, have as significant an impact”. The “mRNA expression of adipogenic markers (PPARγ, aP2, FAS)” value in experiment [1] (WT-1, seven days, control, induction media or FGF6) is “only the induction media significantly increased each of the adipogenic markers”. Also, the “increase in UCP1 expression in human brown fat precursors” value in the experiment on UCP1 is listed as approximately 60 fold.

(Values after patent US20170173114A1, “METHODS AND COMPOSITIONS FOR INDUCTION OF UCP1 EXPRESSION” (Joslin Diabetes Center, Inc., priority 2014, published 2017).)
